Test results as given in publication PMC10716038, “Talin and kindlin use integrin tail allostery and direct binding to activate integrins” (Nature Structural & Molecular Biology, 2023).
Where “and” joins values, the source holds several entries; their conditions need not be identical. Equal entries are not always repeated. No end group written: not given here.

B1: talin-1 head domain (THD1) (domain or fragment, UniProt P26039 1-405, looked up)
chain: MVALSLKISIGNVVKTMQFEPSTMVYDACRMIRERIPEALAGPPNDFGLFLSDDDPKKGIWLEAGKALDYYMLRNGDTMEYRKKQRPLKIRMLDGTVKTIMVDDSKTVTDMLMTICARIGITNHDEYSLVRELMEEKKDEGTGTLRKDKTLLRDEKKMEKLKQKLHTDDELNWLDHGRTLREQGVEEHETLLLRRKFFYSDQNVDSRDPVQLNLLYVQARDDILNGSHPVSFDKACEFAGFQCQIQFGPHNEQKHKAGFLDLKDFLPKEYVKQKGERKIFQAHKNCGQMSEIEAKVRYVKLARSLKTYGVSFFLVKEKMKGKNKLVPRLLGITKECVMRVDEKTKEVIQEWSLTNIKRWAASPKSFTLDFGDYQDGYYSVQTTEGEQIAQLIAGYIDIILKKKKS
notes: talin-1 (TLN1) head domain (THD), residues 1-405; murine TLN1 cDNA is named only for the cell lines; also called WT; source: E. coli (DE3) Rosetta 2, purified (IMAC, SEC); not shown: His10-SUMO, N-terminal, cleaved

Columns and labels:
Conditions in all cases: both partners purified
[1] = molecular target: T1, biotinylated integrin β1 transmembrane and cytoplasmic tail polypeptide (β1-TM–CT) in nanodiscs (UniProt P09055 726-798, biotin (biotin-maleimide)); experiment: flow cytometry-based reporter-displacement assay (FC-RDA) on beads; biotinylated TM–CT in PIP2-containing nanodiscs on streptavidin beads; reporter 647–KIND2-Y13A, unlabelled competitor titrated; IC50 of individual experiments
T1 construct: integrin β1 TM and CT, residues 726-798; embedded in MSP2N2 nanodiscs with 10% PIP2 or PIP3 and 90% DMPC, on average one TM–CT per nanodisc; held on streptavidin beads; also called b1; source: E. coli BL21 (DE3) Rosetta 2, inclusion bodies, purified (IMAC, cation exchange)

[2] = molecular target: T1, biotinylated integrin β1 transmembrane …; experiment: flow cytometry-based reporter-displacement assay (FC-RDA) on beads; biotinylated TM–CT in 10% PIP2/90% DMPC nanodiscs on streptavidin beads; reporter 100 nM 565–THD1, unlabelled competitor titrated; 20 mM Tris pH 7.5, 200 mM NaCl, room temperature; IC50 of individual experiments; charged lipids contribute to the binding
[3] = molecular target: T1, biotinylated integrin β1 transmembrane …; experiment: flow cytometry-based reporter-displacement assay (FC-RDA) on beads; biotinylated TM–CT in 10% PIP2/90% DMPC nanodiscs on streptavidin beads; reporter 50 nM 647–KIND2, unlabelled competitor titrated; 20 mM Tris pH 7.5, 200 mM NaCl, room temperature; IC50 of individual experiments; charged lipids contribute to the binding
[4] = molecular target: T2, biotinylated integrin β3 transmembrane and cytoplasmic tail polypeptide (β3-TM–CT) in nanodiscs (UniProt O54890 715-787, biotin (biotin-maleimide)); experiment: flow cytometry-based reporter-displacement assay (FC-RDA) on beads; biotinylated TM–CT in 10% PIP3/90% DMPC nanodiscs on streptavidin beads; reporter 100 nM 565–THD1, unlabelled competitor titrated; 20 mM Tris pH 7.5, 200 mM NaCl, room temperature; IC50 of individual experiments; charged lipids contribute to the binding
T2 construct: integrin β3 TM and CT, residues 715-787; embedded in MSP2N2 nanodiscs with 10% PIP2 or PIP3 and 90% DMPC; held on streptavidin beads; also called b3; source: E. coli BL21 (DE3) Rosetta 2, inclusion bodies, purified (IMAC, cation exchange)
T2 sequence (looked up): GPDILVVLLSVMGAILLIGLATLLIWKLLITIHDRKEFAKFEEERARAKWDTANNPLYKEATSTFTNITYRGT

[5] = molecular target: B1; experiment: MST; apparent; THD1 titrated to 488–β1-CT or THD2 to 488–β3-CT in the presence of 30 µM KIND2; MST buffer
[6] = molecular target: B1; experiment: MST; apparent; THD1 titrated to 488–β1-CT or 488–β3-CT in the presence of 500–1,100 µM KIND2-F0; MST buffer
[7] = molecular target: B1; experiment: MST; apparent; THD1 titrated to 488–β1-CT or 488–β3-CT in the presence of 300–400 µM β-CT-binding-impaired KIND2 Q614A,W615A (QW/AA); MST buffer
[8] = molecular target: B1; experiment: MST; unlabelled protein titrated to 50-200 nM ATTO 488-labelled β-CT peptide, no third protein; 20 mM Tris pH 7.5, 200 mM NaCl, 1 mM TCEP, 0.05% Tween-20; Kd of individual titrations (in S0002 mean and sd, n = 2)
[9] = molecular target: B1; experiment: as above; remark: listed apart in the source

B1
IC50 [1]: 321 nM and 390 nM and 506 nM and 206 nM
IC50 [2]: 49 nM and 91 nM and 89 nM and 62 nM
IC50 [3]: 249 nM and 192 nM and 87 nM
IC50 [4]: 53 nM and 70 nM and 127 nM

B2: ATTO 488-labeled integrin β1 cytoplasmic tail (488–β1-CT) (peptide, UniProt P09055-1 758-798, looked up)
peptide: {ATTO 488}-HDRREFAKFEKEKMNAKWDTGENPIYKSAVTTVVNPKYEGK
notes: integrin β1A cytoplasmic tail (β1-CT), residues 758-798; the limits 758-798 are stated for the recombinant β1-CT; also called β1A-CT; source: synthetic peptide (MPIB Core Facility)
Kd [5]: 159000 nM and 173000 nM and 127000 nM
Kd [6]: 173000 nM and 137000 nM and 177000 nM
Kd [7]: 148000 nM and 212000 nM and 195000 nM
Kd [8]: 128000 nM and 152000 nM and 141000 nM
Kd [9]: 152000 nM
